Reference: the Human Domainome abundance scans (Beltran et al. 2025)
± gives the uncertainty stated by the source.

B1: 3'-5' exoribonuclease 1, residues 65 to 114; numbered along this chain, Q8IV48 (parent)
chain: VYKEIAITNGCINRMSKEELRAKLSEFKLETRGVKDVLKKRLKNYYKKQK

Variants of: B1
Assay: abundance fitness (aPCA) (normalised: wild type 0, dead -1); higher = more abundant; growth selection in yeast, the domain comes from the species named
Conditions: Homo sapiens
In the case of VYKEIAITNGCINRMSKEELRAKLSEFKLETRGVKDVLKKRLKNYYKQQK, the abundance fitness is reported as -0.211 ± 0.059.
Variant VYKEIAITNGCINRMSKEELRAKLSEFKLETRGVKDVLKKRLKNYYKSQK has an abundance fitness of -0.158 ± 0.041.
VYKEIAITNGCINRMSKEELRAKLSEFKLETRGVKDVLKKRLKNYYKNQK showed an abundance fitness of -0.164 ± 0.06.
For VYKEIAITNGCINRMSKEELRAKLSEFKLETRGVKDVLKKRLKNYYKWQK, the abundance fitness was -0.393 ± 0.043.
VYKEIAITNGCINRMSKEELRAKLSEFKLETRGVKDVLKKRLKNYYKYQK gave an abundance fitness of -0.279 ± 0.059.
VYKEIAITNGCINRMSKEELRAKLSEFKLETRGVKDVLKKRLKNYYKCQK showed an abundance fitness of -0.323 ± 0.049.
With VYKEIAITNGCINRMSKEELRAKLSEFKLETRGVKDVLKKRLKNYYKKQG the abundance fitness was -0.299 ± 0.12.
VYKEIAITNGCINRMSKEELRAKLSEFKLETRGVKDVLKKRLKNYYKKQD gave an abundance fitness of -0.347 ± 0.074.
For VYKEIAITNGCINRMSKEELRAKLSEFKLETRGVKDVLKKRLKNYYKKQN, the abundance fitness was -0.06 ± 0.048.
VYKEIAITNGCINRMSKEELRAKLSEFKLETRGVKDVLKKRLKNYYKKQL showed an abundance fitness of -0.058 ± 0.09.
VYKEIAITNGCINRMSKEELRAKLSEFKLETRGVKDVLKKRLKNYYKKQI gave an abundance fitness of -0.157 ± 0.07.
Variant VYKEIAITNGCINRMSKEELRAKLSEFKLETRGVKDVLKKRLKNYYKKQH has an abundance fitness of -0.164 ± 0.059.
Work on VYKEIAITNGCINRMSKEELRAKLSEFKLETRGVKDVLKKRLKNYYKKQP yielded an abundance fitness of -0.201 ± 0.32.
For VYKEIAITNGCINRMSKEELRAKLSEFKLETRGVKDVLKKRLKNYYKKQA, the abundance fitness was -0.159 ± 0.12.
VYKEIAITNGCINRMSKEELRAKLSEFKLETRGVKDVLKKRLKNYYKKQV showed an abundance fitness of -0.081 ± 0.23.
In the case of VYKEIAITNGCINRMSKEELRAKLSEFKLETRGVKDVLKKRLKNYYKKQY, the abundance fitness is reported as -0.162 ± 0.058.
With VYKEIAITNGCINRMSKEELRAKLSEFKLETRGVKDVLKKRLKNYYKKQQ the abundance fitness was -0.123 ± 0.073.
With VYKEIAITNGCINRMSKEELRAKLSEFKLETRGVKDVLKKRLKNYYKKQW the abundance fitness was -0.052 ± 0.12.
For VYKEIAITNGCINRMSKEELRAKLSEFKLETRGVKDVLKKRLKNYYKKQR, the abundance fitness was -0.089 ± 0.071.
VYKEIAITNGCINRMSKEELRAKLSEFKLETRGVKDVLKKRLKNYYKKQT gave an abundance fitness of -0.179 ± 0.06.
With VYKEIAITNGCINRMSKEELRAKLSEFKLETRGVKDVLKKRLKNYYKKQM the abundance fitness was -0.216 ± 0.094.
Work on VYKEIAITNGCINRMSKEELRAKLSEFKLETRGVKDVLKKRLKNYYKKQE yielded an abundance fitness of -0.13 ± 0.091.
For VYKEIAITNGCINRMSKEELRAKLSEFKLETRGVKDVLKKRLKNYYWKQK, the abundance fitness was -0.608 ± 0.043.
With VYKEIAITNGCINRMSKEELRAKLSEFKLETRGVKDVLKKRLKNYYCKQK the abundance fitness was -0.491 ± 0.05.
VYKEIAITNGCINRMSKEELRAKLSEFKLETRGVKDVLKKRLKNYYGKQK gave an abundance fitness of -0.447 ± 0.037.
Work on VYKEIAITNGCINRMSKEELRAKLSEFKLETRGVKDVLKKRLKNYYFKQK yielded an abundance fitness of -0.572 ± 0.066.
For VYKEIAITNGCINRMSKEELRAKLSEFKLETRGVKDVLKKRLKNYYNKQK, the abundance fitness was -0.155 ± 0.063.
With VYKEIAITNGCINRMSKEELRAKLSEFKLETRGVKDVLKKRLKNYYAKQK the abundance fitness was -0.288 ± 0.044.
Variant VYKEIAITNGCINRMSKEELRAKLSEFKLETRGVKDVLKKRLKNYYYKQK has an abundance fitness of -0.533 ± 0.068.
For VYKEIAITNGCINRMSKEELRAKLSEFKLETRGVKDVLKKRLKNYYIKQK, the abundance fitness was -0.415 ± 0.057.
Work on VYKEIAITNGCINRMSKEELRAKLSEFKLETRGVKDVLKKRLKNYYMKQK yielded an abundance fitness of -0.34 ± 0.061.
VYKEIAITNGCINRMSKEELRAKLSEFKLETRGVKDVLKKRLKNYYVKQK gave an abundance fitness of -0.422 ± 0.04.
VYKEIAITNGCINRMSKEELRAKLSEFKLETRGVKDVLKKRLKNYYLKQK gave an abundance fitness of -0.381 ± 0.042.
With VYKEIAITNGCINRMSKEELRAKLSEFKLETRGVKDVLKKRLKNYYTKQK the abundance fitness was -0.416 ± 0.047.
In the case of VYKEIAITNGCINRMSKEELRAKLSEFKLETRGVKDVLKKRLKNYYRKQK, the abundance fitness is reported as -0.132 ± 0.035.
VYKEIAITNGCINRMSKEELRAKLSEFKLETRGVKDVLKKRLKNYYHKQK gave an abundance fitness of -0.409 ± 0.075.
With VYKEIAITNGCINRMSKEELRAKLSEFKLETRGVKDVLKKRLKNYYQKQK the abundance fitness was -0.325 ± 0.059.
VYKEIAITNGCINRMSKEELRAKLSEFKLETRGVKDVLKKRLKNYYDKQK showed an abundance fitness of -0.643 ± 0.081.
VYKEIAITNGCINRMSKEELRAKLSEFKLETRGVKDVLKKRLKNYTKKQK showed an abundance fitness of -0.125 ± 0.047.
In the case of VYKEIAITNGCINRMSKEELRAKLSEFKLETRGVKDVLKKRLKNYNKKQK, the abundance fitness is reported as -0.268 ± 0.069.
Work on VYKEIAITNGCINRMSKEELRAKLSEFKLETRGVKDVLKKRLKNYIKKQK yielded an abundance fitness of 0.114 ± 0.053.
For VYKEIAITNGCINRMSKEELRAKLSEFKLETRGVKDVLKKRLKNYMKKQK, the abundance fitness was 0.111 ± 0.046.
Variant VYKEIAITNGCINRMSKEELRAKLSEFKLETRGVKDVLKKRLKNYQKKQK has an abundance fitness of -0.166 ± 0.066.
Variant VYKEIAITNGCINRMSKEELRAKLSEFKLETRGVKDVLKKRLKNYWKKQK has an abundance fitness of -0.229 ± 0.049.
With VYKEIAITNGCINRMSKEELRAKLSEFKLETRGVKDVLKKRLKNYKKKQK the abundance fitness was -0.32 ± 0.067.
In the case of VYKEIAITNGCINRMSKEELRAKLSEFKLETRGVKDVLKKRLKNYSKKQK, the abundance fitness is reported as -0.277 ± 0.04.
For VYKEIAITNGCINRMSKEELRAKLSEFKLETRGVKDVLKKRLKNYPKKQK, the abundance fitness was -1 ± 0.07.
For VYKEIAITNGCINRMSKEELRAKLSEFKLETRGVKDVLKKRLKNYLKKQK, the abundance fitness was 0.079 ± 0.038.
